The values that follow come from publication PMC7260706.

The target in the data set is T1, RelE (UniProt P0C077 1-95).
T1 sequence: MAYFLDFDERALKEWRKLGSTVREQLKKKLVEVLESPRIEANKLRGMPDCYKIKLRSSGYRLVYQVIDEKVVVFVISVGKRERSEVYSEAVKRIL
Nature of the data set: intrinsic protein fluorescence.

B1: unmodified mRNA (ssRNA)
RNA: GGCAAGGAGGUAAAAAUGUAGAAAAACAAU
On to B1, for which the binding result is listed as “binds”.
